Results on one molecule are retold here after patent US20180071818, “A PROCESS FOR THE PREPARATION OF BIO-ORGANIC COATED GOLD AND SILVER NANOPARTICLES USING BLUE LIGHT” (Council of Scientific & Industrial Research, published 2018).

The target in the series is Gelsolin (full-length) (Homo sapiens, UniProt P06396 P06396:28-782). Nature of the series: ELONA; aptamer-Ag nanoparticles coated directly, gelsolin 2 ug/well, anti-gelsolin detection; room temperature. Particulars: tags: Sigma; His tag inferred from capture by anti-His antibody; label: silver nanoparticle. The method, then:
In case of aptamer based Ag nanoparticles formation, reaction mixture was prepared by adding 18 μl of Aptamer 10.10R (SEQ ID No. 8) (4.86 μg/μl or 18 pmoles/μl) in each 0.2 ml of reaction volume of buffer (25 mM tris pH 8, 150 mM NaCl, 5 mM MgCl₂, 10 mM KCl, 0.01% tween and 2 mM CaCl₂) with 7.2 μl of AgNO₃ of 5 mM stock solution to form Ag nanoparticles. The final molar ratio of silver ions to aptamer 10.10R was kept constant at […]. Treated the ELISA plate with 1 μg/well streptavidin (1 mg/ml) and incubated the plate overnight at 4° C. For aptamer based Ag nanoparticles coating streptavidin was not used. The wells were blocked with 3% bovine serum albumin (BSA) in PBS and kept at room temperature for 2 hours to saturate excess binding sites. The wells were then washed three times with PBST and further added with 5, 10 and 20 μl of aptamer only and aptamer Ag nanoparticles (18 pmoles/μl), making aptamer working concentration of […]. All the coatings were performed in duplicates for two conditions one with and one without gelsolin in next step. […] The absorbance was measured with a multiskan ELISA reader at 450 nm.
It was observed that the coated aptamer or aptamer_Ag nanoparticles were captured by gelsolin which was further detected using anti-gelsolin antibody using an indirect ELISA based method (FIG. 4C). […]

Gelsolin (full-length), sequence (P06396 28-782, one chain of several): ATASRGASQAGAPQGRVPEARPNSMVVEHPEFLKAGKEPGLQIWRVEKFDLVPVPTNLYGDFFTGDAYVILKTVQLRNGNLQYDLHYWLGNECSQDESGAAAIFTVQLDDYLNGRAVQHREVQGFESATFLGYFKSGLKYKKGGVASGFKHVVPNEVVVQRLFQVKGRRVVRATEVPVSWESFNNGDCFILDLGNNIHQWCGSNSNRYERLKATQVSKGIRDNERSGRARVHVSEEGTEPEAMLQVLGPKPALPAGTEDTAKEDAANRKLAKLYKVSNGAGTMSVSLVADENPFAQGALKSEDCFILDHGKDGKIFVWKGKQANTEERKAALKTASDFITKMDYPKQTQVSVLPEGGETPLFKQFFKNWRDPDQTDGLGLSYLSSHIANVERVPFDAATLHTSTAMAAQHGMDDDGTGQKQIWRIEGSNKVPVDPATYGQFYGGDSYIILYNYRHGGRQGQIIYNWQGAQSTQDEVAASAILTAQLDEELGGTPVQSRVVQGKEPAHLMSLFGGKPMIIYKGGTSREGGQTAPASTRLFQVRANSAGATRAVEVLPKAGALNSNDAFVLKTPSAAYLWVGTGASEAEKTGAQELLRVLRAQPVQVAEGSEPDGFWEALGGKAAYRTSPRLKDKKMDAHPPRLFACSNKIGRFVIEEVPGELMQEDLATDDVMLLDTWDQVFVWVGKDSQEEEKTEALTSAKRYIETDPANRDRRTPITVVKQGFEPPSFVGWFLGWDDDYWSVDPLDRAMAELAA

B1: Aptamer 10.10R coated on Ag nanoparticles (ssDNA)
DNA: TCAAGTGGTCATGTACTAGTCAAGCACTTTCGCTGCTCGCTGGCGCCGCGCCCATCATATGTCCTTCTCTTCCCTA
As to B1, the binding signal turned out to be 3 fold vs aptamer only.
